Test results: paper PMC3745430, “Novel Multiplexed Assay for Identifying SH2 Domain Antagonists of STAT Family Proteins” (PLoS ONE, 2013)
Square brackets hold non-standard residues; d marks the D form. Primed or numbered codes have the meaning given here. Ends that are not written are not given here. pY = N[C@@H](Cc1ccc(OP(=O)(O)O)cc1)C(=O)O; FITC′ = 5-carboxyfluorescein label; DIG = digoxygenin label; C2 = two carbon spacer; C6 = C6 spacer

Key:
[1] = molecular target: T1, STAT5b(136–703) (Homo sapiens, UniProt P51692); test: Multiplexed Alpha assay, STAT5b-SH2 binding (AlphaScreen); settings: multiplexed assay; read-out: IC50 for STAT5b-SH2 binding
T1 construct: 136 to 703 of human STAT5b; 6×His-tag (N); made in house; host or cells: E. coli BL-21 Star (DE3) pLysS co-transformed with pBirAcm
T1 sequence (P51692 136-703): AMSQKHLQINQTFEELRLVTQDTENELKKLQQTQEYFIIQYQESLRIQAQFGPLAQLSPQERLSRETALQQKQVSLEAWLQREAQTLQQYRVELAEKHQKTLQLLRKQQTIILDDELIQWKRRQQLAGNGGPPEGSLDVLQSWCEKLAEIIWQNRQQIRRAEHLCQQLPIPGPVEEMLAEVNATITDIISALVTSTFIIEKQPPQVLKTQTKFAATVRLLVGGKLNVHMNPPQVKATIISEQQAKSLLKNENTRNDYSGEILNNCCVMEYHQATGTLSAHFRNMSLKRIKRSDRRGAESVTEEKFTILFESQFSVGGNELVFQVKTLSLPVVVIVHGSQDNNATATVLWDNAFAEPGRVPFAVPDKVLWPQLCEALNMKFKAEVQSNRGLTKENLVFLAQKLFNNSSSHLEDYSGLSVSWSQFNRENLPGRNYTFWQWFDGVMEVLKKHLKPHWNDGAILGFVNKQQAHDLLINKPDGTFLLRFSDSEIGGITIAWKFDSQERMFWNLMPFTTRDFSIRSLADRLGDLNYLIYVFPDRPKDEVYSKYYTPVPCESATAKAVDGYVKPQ
Description: (§1) Both AlphaLISA and AlphaScreen are bead-based nonradioactive binding assay systems for detecting biomolecular interactions in a microplate format. The binding of the biological partners brings the donor and acceptor beads into close proximity, and AlphaLISA produces a specific signal around 615 nm and AlphaScreen emits a broad signal between 520 and 620 nm. The assays were performed in a final reaction volume of 25 µL of the assay buffer, which contained 10 mM HEPES-NaOH (pH 7.4), 50 mM NaCl, 1 mM EDTA (pH 8.0), 0.1% (w/v) NP-40, and 10 ng/µL (w/v) BSA in a 96-well microplate at 25°C. The labeled phosphotyrosyl (pTyr, pY) peptide probes were DIG-GpYLPQTV and FITC-GpYLVLDKW for STAT3 and STAT5b, respectively. In the single assay for STAT3 binding, 100 nM STAT3(136–705) protein was incubated with a test compound dissolved in DMSO for 30 min, and 1.0 nM DIG-GpYLPQTV was added and the mixture was incubated for 90 min. Streptavidin-coated donor beads (0.25 µg/well) and anti-DIG AlphaLISA acceptor beads (0.25 µg/well) were added and incubated for 90 min before the signals were measured with EnVison Xcite (PerkinElmer Life Sciences). In the single assay for STAT5b binding, 20 nM STAT5b(136–703) was incubated with a test compound for 30 min, and 1.0 nM FITC-GpYLVLDKW was added and incubated for 90 min. Streptavidin-coated donor beads (0.25 µg/well) and anti-FITC AlphaScreen acceptor beads (0.25 µg/well) were added and incubated for 90 min before the signals were measured with EnVison Xcite. In the multiplexed assay, 100 nM STAT3(136–705) and 20 nM STAT5b(136–703) were incubated with a test compound for 30 min, and 1.0 nM DIG-GpYLPQTV and 1.0 nM FITC-GpYLVLDKW were added and incubated for 90 min. Streptavidin-coated donor beads (0.50 µg/well), anti-DIG AlphaLISA (0.25 µg/well), and anti-FITC AlphaScreen acceptor beads (0.25 µg/well) were added and incubated for 90 min before the signals were measured with EnVison Xcite. AlphaLISA and AlphaScreen signals for measuring STAT3- and STAT5b-SH2 binding, respectively, can be separately measured by using a dysprosium 572 nm and a europium 615 nm narrow bandwidth filter. In inhibitory assays, these signals for the bound state and the free state were represented as 0% and 100% inhibition, respectively. The bound state was measured by incubating the labeled peptide and the protein without test compounds. The free state was measured by incubating the same mixture with an additional 10 µM non-labeled peptide contained phosphorylated tyrosine, which competitively binds to its corresponding protein. The IC50 value was calculated by Graph pad prism 4.0. The mean and the standard error (SEM) of IC50 values were determined from three independent experiments. The Z’ value was calculated using the equation Z’ = 1–(3×SD_bound +3×SD_free)/(Signal_bound – Signal_free). STAT1 and Grb2 binding assays were performed as described in previous report. In the assays for selectivity of Compound 1, 100 pM biotinylated DIG or 100 pM biotinylated FITC was incubated with 10 µM or 30 µM Compound 1 for 30 min. Streptavidin-coated donor beads (0.25 µg/well) and anti-DIG AlphaLISA acceptor beads (0.25 µg/well) or anti-FITC AlphaScreen acceptor beads (0.25 µg/well) were added and incubated for 90 min before the signals were measured with EnVison Xcite.

[2] = molecular target: T2, STAT3(136–705) (Homo sapiens, UniProt P40763); test: Multiplexed Alpha assay, STAT3-SH2 binding (AlphaLISA); settings: multiplexed assay; read-out: IC50 for STAT3-SH2 binding
T2 construct: amino acids 136 to 705 of human STAT3 and 136 to 703 of human STAT5b; 6×His-tag (N); made in house; host or cells: E. coli BL-21 Star (DE3) pLysS co-transformed with pBirAcm
T2 sequence (P40763 136-705): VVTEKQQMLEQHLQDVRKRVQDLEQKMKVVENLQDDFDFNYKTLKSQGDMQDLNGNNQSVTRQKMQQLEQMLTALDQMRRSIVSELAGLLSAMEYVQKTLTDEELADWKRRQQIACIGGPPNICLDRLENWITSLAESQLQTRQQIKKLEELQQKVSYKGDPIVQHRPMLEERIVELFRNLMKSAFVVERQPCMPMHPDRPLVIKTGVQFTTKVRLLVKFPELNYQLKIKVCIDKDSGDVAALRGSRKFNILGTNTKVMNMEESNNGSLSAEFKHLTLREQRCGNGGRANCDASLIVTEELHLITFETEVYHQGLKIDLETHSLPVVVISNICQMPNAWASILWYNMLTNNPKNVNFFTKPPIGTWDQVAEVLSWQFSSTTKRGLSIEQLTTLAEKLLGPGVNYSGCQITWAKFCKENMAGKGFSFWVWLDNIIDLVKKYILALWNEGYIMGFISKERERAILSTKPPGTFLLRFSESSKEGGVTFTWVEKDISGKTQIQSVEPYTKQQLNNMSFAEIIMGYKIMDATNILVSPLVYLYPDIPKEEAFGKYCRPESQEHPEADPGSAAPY
Description: as §1

[3] = molecular target: T1, STAT5b(136–703); test: Single STAT5b-SH2 binding assay (AlphaScreen); settings: single assay, non-labeled peptides (Figure 4B)
Description: as §1

[4] = molecular target: T2, STAT3(136–705); test: Single STAT3-SH2 binding assay (AlphaLISA); settings: single assay, non-labeled peptides (Figure 4A)
Description: as §1

[5] = molecular target: T2, STAT3(136–705); test: AlphaScreen competition of FITC-C6-GpYLPQTV binding to STAT3(136–705); settings: AlphaScreen system, competitor (Figure S2)
Description: To acquire the signal window, the length of the spacer between DIG and the peptide sequence in the DIG-labeled GpYLPQTV peptide was investigated by using the single STAT3-SH2 binding assay. A six carbon (C6) and a two carbon (C2) peptide spacer were used (Figure 3A). […] The DIG-C6-GpYLPQTV peptide was chosen as the STAT3 ligand. When 100 nM STAT3(136–705) was used as the biotinylated protein, 2.0 nM DIG-C6-GpYLPQTV produced the maximum signal for the STAT3-SH2 binding (Figure 3B, Figure S1). For the STAT5b-SH2 binding, FITC-C6-GpYLVLDKW was used as the STAT5b ligand. The signals increased in a peptide dose-dependent manner (Figure S1). When 20 nM STAT5b(136–703) was used, 2.5 nM FITC-C6-GpYLVLDKW produced the maximum signal for STAT5b-SH2 binding. […] Therefore, although DIG-C2-GpYLPQTV could bind to STAT3, it was not suitable for the Alpha system. The anti-DIG antibody may access the DIG-C6-GpYLPQTV peptide-STAT3 protein complex in preference to the DIG-C2-GpYLPQTV peptide complex because of the length of the spacer.
Supplementary file pone.0071646.s002.tif: Figure S2 Inhibition of STAT3-SH2 binding by DIG-C2-GpYLPQTV. DIG-C2-GpYLPQTV was used as a competitor in the binding assay for STAT3(136–705) protein and FITC-C6-GpYLPQTV peptide in the single assay. Each point is the mean from three replicates, and the error bars represent the standard deviation from the mean. […]

[6] = molecular target: T3, STAT5b(136–703) (human, UniProt P51692 136-703, biotin on the Avi-tag); test: AlphaScreen or HTRF; AlphaScreen, single STAT5b-SH2 assay, competition: 20 nM biotinylated STAT5b(136-703) incubated with non-labelled peptide, then 1.0 nM FITC-GpYLVLDKW for 90 min; streptavidin donor and anti-FITC acceptor beads; 10 mM HEPES-NaOH pH 7.4, 50 mM NaCl, 1 mM EDTA, 0.1% NP-40, BSA, 25°C; settings: both partners purified
T3 construct: also called biotinylated STAT5b protein; truncated form of STAT5b; source: E. coli BL-21 Star (DE3) pLysS with pBirAcm (biotinylated in the cells), purified (HisTrap HP, dialysis); not shown: Avi-tag, N-terminal, kept
T3 sequence (looked up): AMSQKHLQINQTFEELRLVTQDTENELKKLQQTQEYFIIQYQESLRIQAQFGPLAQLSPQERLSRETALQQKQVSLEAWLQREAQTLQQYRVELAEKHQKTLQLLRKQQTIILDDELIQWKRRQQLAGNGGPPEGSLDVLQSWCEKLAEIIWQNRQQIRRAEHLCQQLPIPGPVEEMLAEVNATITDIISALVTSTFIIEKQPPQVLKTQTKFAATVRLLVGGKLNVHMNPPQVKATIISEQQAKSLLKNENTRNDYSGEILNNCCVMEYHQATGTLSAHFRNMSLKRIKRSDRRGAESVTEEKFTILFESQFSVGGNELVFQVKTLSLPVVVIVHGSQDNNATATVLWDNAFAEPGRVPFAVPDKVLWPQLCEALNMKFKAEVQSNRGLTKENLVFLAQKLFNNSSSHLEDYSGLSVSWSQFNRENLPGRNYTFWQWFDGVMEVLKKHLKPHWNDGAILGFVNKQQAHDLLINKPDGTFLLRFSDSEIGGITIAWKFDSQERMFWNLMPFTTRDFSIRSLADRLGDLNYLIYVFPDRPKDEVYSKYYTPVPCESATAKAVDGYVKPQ

For `O=[N+]([O-])c1ccc2c(c1)S(=O)(=O)C=C2` [Stattic, reference compound], the IC50 [1] was 175 µM and the IC50 [2] was 50 µM.

In the case of Ac-GYLPQTV-NH2, the “Inhibitory effect on STAT5b-SH2 binding” value [3] is reported as “had no effect” and the “Inhibitory effect on STAT3-SH2 binding” value [4] is reported as “had no effect”.

For Ac-GYLVLDKW-NH2, the “Inhibitory effect on STAT5b-SH2 binding” value [3] was “had no effect” and the “Inhibitory effect on STAT3-SH2 binding” value [4] was “had no effect”.

For “Ac-GpYLPQTV-NH2 (Ac-G[pY]LPQTV-NH2) [non-labeled phosphotyrosine peptide for STAT3]”, the “Inhibitory effect on STAT5b-SH2 binding” value [3] was “had no effect” and the “Inhibitory effect on STAT3-SH2 binding” value [4] was “inhibited”.

In the case of Ac-GpYLVLDKW-NH2, the “Inhibitory effect on STAT5b-SH2 binding” value [3] is reported as “inhibited” and the “Inhibitory effect on STAT3-SH2 binding” value [4] is reported as “had no effect”.

For “DIG-C2-GpYLPQTV ({DIG-C2}-G[pY]LPQTV) [digoxygenin-labeled GpYLPQTV peptide with two carbon spacer]”, the “Inhibition of binding between FITC-C6-GpYLPQTV and STAT3(136–705)” value [5] was “inhibited”.

B1: FITC-C6-GpYLVLDKW (peptide)
peptide: {FITC′-C6}-G[pY]LVLDKW
notes: the leading G is not the receptor's residue at that place; also called FITC-GpYLVLDKW; FITC-labeled GpYLVLDKW peptide; source: synthetic peptide (synthesized by Nippi Biomatrix Laboratory)
B1: binds [6].

B2: Ac-GpYLVLDKW-NH2 (peptide)
peptide: Ac-G[pY]LVLDKW-NH2
SMILES: CC(=O)NCC(=O)N[C@@H](Cc1ccc(OP(=O)(O)O)cc1)C(=O)N[C@@H](CC(C)C)C(=O)N[C@H](C(=O)N[C@@H](CC(C)C)C(=O)N[C@@H](CC(=O)O)C(=O)N[C@@H](CCCCN)C(=O)N[C@@H](Cc1c[nH]c2ccccc12)C(N)=O)C(C)C
notes: the leading G is not the receptor's; also called non-labeled peptide for STAT5b
B2: binds [6].
